Test results as given in paper PMC4926470.

Columns and labels:
[1] = secreted protein in media at 37 °C, Western; conditions: glycan lost; control: wild type
[2] = Western densitometry, % in media, 48 h; conditions: control: wild type
[3] = Western blot of conditioned media; conditions: control: untreated
[4] = AHA pulse-chase, intracellular protein; conditions: glycan lost; control: wild type
[5] = Western densitometry, % in media; conditions: glycan gained; control: wild type

Protein | degradation_or_half_life, half_life [1] | expression_or_secretion, other: percent of total protein in media ([2]; glycan lost) | also measured
human Rspo2: N160Q (protein) parent chain: MQFRLFSFALIILNCMDYSHCQGNRWRRSKRASYVSNPICKGCLSCSKDNGCSRCQQKLFFFLRREGMRQYGECLHSCPSGYYGHRAPDMNRCARCRIENCDSCFSKDFCTKCKVGFYLHRGRCFDECPDGFAPLEETMECVEGCEVGHWSEWGTCSRNNRTCGFKWGLETRTRQIVKKPVKDTILCPTIAESRRCKMTMRHCPGGKRTPKAKEKRNKKKKRKLIERAQEQHSVFLATDRANQ | decreases, 12 vs 36 | decreases, 18% vs 34% | 
human Rspo2: E136N (protein) parent chain: MQFRLFSFALIILNCMDYSHCQGNRWRRSKRASYVSNPICKGCLSCSKDNGCSRCQQKLFFFLRREGMRQYGECLHSCPSGYYGHRAPDMNRCARCRIENCDSCFSKDFCTKCKVGFYLHRGRCFDECPDGFAPLEETMECVEGCEVGHWSEWGTCSRNNRTCGFKWGLETRTRQIVKKPVKDTILCPTIAESRRCKMTMRHCPGGKRTPKAKEKRNKKKKRKLIERAQEQHSVFLATDRANQ |  |  | expression_or_secretion, other: percent of total protein in media ([2]; glycan gained): increases, two-fold vs 34%
human Rspo3: N137Q (protein) parent chain: MHLRLISWLFIILNFMEYIGSQNASRGRRQRRMHPNVSQGCQGGCATCSDYNGCLSCKPRLFFALERIGMKQIGVCLSSCPSGYYGTRYPDINKCTKCKADCDTCFNKNFCTKCKSGFYLHLGKCLDNCPEGLEANNHTMECVSIVHCEVSEWNPWSPCTKKGKTCGFKRGTETRVREIIQHPSAKGNLCPPTNETRKCTVQRKKCQKGERGKKGRERKRKKPNKGESKEAIPDSKSLESSKEIPEQRENKQQQKKRKVQDKQKSVSVSTVH | no change, >48 vs >48 | decreases, 44% vs 67% | 
human Rspo3: tunicamycin (protein) parent chain: MHLRLISWLFIILNFMEYIGSQNASRGRRQRRMHPNVSQGCQGGCATCSDYNGCLSCKPRLFFALERIGMKQIGVCLSSCPSGYYGTRYPDINKCTKCKADCDTCFNKNFCTKCKSGFYLHLGKCLDNCPEGLEANNHTMECVSIVHCEVSEWNPWSPCTKKGKTCGFKRGTETRVREIIQHPSAKGNLCPPTNETRKCTVQRKKCQKGERGKKGRERKRKKPNKGESKEAIPDSKSLESSKEIPEQRENKQQQKKRKVQDKQKSVSVSTVH |  |  | expression_or_secretion ([3]; glycan lost): decreases
human Rspo1 (R-spondin 1): N137Q (protein) parent chain: MRLGLCVVALVLSWTHLTISSRGIKGKRQRRISAEGSQACAKGCELCSEVNGCLKCSPKLFILLERNDIRQVGVCLPSCPPGYFDARNPDMNKCIKCKIEHCEACFSHNFCTKCKEGLYLHKGRCYPACPEGSSAANGTMECSSPAQCEMSEWSPWGPCSKKQQLCGFRRGSEERTRRVLHAPVGDHAACSDTKETRRCTVRRVPCPEGQKRRKGGQGRRENANRNLARKESKEAGAGSRRRKGQQQQQQQGTVGPLTSAGPA | no change, ~48 vs >48 | decreases, 32% vs 56% | degradation_or_half_life, half_life [4]: decreases, 0.6 vs 0.9
human Rspo1 (R-spondin 1): tunicamycin (protein) parent chain: MRLGLCVVALVLSWTHLTISSRGIKGKRQRRISAEGSQACAKGCELCSEVNGCLKCSPKLFILLERNDIRQVGVCLPSCPPGYFDARNPDMNKCIKCKIEHCEACFSHNFCTKCKEGLYLHKGRCYPACPEGSSAANGTMECSSPAQCEMSEWSPWGPCSKKQQLCGFRRGSEERTRRVLHAPVGDHAACSDTKETRRCTVRRVPCPEGQKRRKGGQGRRENANRNLARKESKEAGAGSRRRKGQQQQQQQGTVGPLTSAGPA |  |  | expression_or_secretion ([3]; glycan lost): decreases
human Rspo1 (R-spondin 1): Q163N/L165T (protein) parent chain: MRLGLCVVALVLSWTHLTISSRGIKGKRQRRISAEGSQACAKGCELCSEVNGCLKCSPKLFILLERNDIRQVGVCLPSCPPGYFDARNPDMNKCIKCKIEHCEACFSHNFCTKCKEGLYLHKGRCYPACPEGSSAANGTMECSSPAQCEMSEWSPWGPCSKKQQLCGFRRGSEERTRRVLHAPVGDHAACSDTKETRRCTVRRVPCPEGQKRRKGGQGRRENANRNLARKESKEAGAGSRRRKGQQQQQQQGTVGPLTSAGPA |  |  | expression_or_secretion, fold_change [5]: increases
human Rspo1 (R-spondin 1): castanospermine (protein) parent chain: MRLGLCVVALVLSWTHLTISSRGIKGKRQRRISAEGSQACAKGCELCSEVNGCLKCSPKLFILLERNDIRQVGVCLPSCPPGYFDARNPDMNKCIKCKIEHCEACFSHNFCTKCKEGLYLHKGRCYPACPEGSSAANGTMECSSPAQCEMSEWSPWGPCSKKQQLCGFRRGSEERTRRVLHAPVGDHAACSDTKETRRCTVRRVPCPEGQKRRKGGQGRRENANRNLARKESKEAGAGSRRRKGQQQQQQQGTVGPLTSAGPA |  |  | expression_or_secretion ([3]; glycan changed form): decreases
